Literature values in PMC3711752.

Target: EGF receptor (Homo sapiens) (UniProt P00533)

EGF, sequence (P01133 971-1023): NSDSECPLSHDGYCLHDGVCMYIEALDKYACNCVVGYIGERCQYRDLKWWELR

Kd: 3 nM
Substance: EGF (from UniProt P01133)
